Changes are numbered by the printed parent chain. Where two headings read alike, the source gives them in different places.
T1: ACAD9 (wild type, without a tag) (human, UniProt Q9H845 38-621)
T1 sequence (looked up): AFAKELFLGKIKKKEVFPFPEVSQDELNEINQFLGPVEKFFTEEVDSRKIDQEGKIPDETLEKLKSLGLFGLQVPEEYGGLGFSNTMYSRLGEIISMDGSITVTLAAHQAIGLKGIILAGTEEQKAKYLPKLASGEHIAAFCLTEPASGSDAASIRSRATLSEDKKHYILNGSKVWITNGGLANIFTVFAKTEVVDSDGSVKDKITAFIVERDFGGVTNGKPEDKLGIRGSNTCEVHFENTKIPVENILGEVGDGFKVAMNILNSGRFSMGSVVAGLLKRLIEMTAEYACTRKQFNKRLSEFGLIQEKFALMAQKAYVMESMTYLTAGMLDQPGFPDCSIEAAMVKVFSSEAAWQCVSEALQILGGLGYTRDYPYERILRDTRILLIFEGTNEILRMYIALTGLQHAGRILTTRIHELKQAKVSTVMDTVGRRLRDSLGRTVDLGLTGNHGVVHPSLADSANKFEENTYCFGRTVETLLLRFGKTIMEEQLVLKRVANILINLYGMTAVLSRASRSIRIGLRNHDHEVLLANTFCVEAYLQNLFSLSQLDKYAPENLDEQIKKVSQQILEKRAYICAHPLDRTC

T2: ACAD9-His6 (human, UniProt Q9H845 38-621)
T2 sequence (looked up): T1 sequence (looked up)

T3: ACAD9 Arg469Trp (human, UniProt Q9H845 38-621, Arg469Trp)
T3 sequence (looked up): T1 sequence (looked up) with R432W

T4: ACAD9 Arg518His (human, UniProt Q9H845 38-621, Arg518His)
T4 sequence (looked up): T1 sequence (looked up) with R481H

T5: ACAD9 Glu426Gln (human, UniProt Q9H845 38-621, Glu426Gln)
T5 sequence (looked up): T1 sequence (looked up) with E389Q

B1: His6-SMT3-NDUFAF1 (natural protein, human, UniProt Q9Y375 25-327, looked up)
chain: YPFLGIRFAEYSSSLQKPVASPGKASSQRKTEGDLQGDHQKEVALDITSSEEKPDVSFDKAIRDEAIYHFRLLKDEIVDHWRGPEGHPLHEVLLEQAKVVWQFRGKEDLDKWTVTSDKTIGGRSEVFLKMGKNNQSALLYGTLSSEAPQDGESTRSGYCAMISRIPRGAFERKMSYDWSQFNTLYLRVRGDGRPWMVNIKEDTDFFQRTNQMYSYFMFTRGGPYWQEVKIPFSKFFFSNRGRIRDVQHELPLDKISSIGFTLADKVDGPFFLEIDFIGVFTDPAHTEEFAYENSPELNPRLFK
B2: His6-C-ECSIT (domain or fragment, human, UniProt Q9BQ95 249-431, looked up)
chain: LPKDSTGAADPPQPHIVGIQSPDQQAALARHNPARPVFVEGPFSLWLRNKCVYYHILRADLLPPEEREVEETPEEWNLYYPMQLDLEYVRSGWDNYEFDINEVEEGPVFAMCMAGAHDQATMAKWIQGLQETNPTLAQIPVVFRLAGSTRELQTSSAGLEEPPLPEDHQEEDDNLQRQQQGQS
B3: Loop12-ACAD9 (enzyme, human)
chain: AFAKELFLGKIKKKEVFPFPEVSQDELNEINQFLGPVEKFFTEEVDSRKIDQEGKIPDETLEKLKSLGLFGLQVPEEYGGLGFSNTMYSRLGEIISMDGSITVTLAAHQAIGLKGIILAGTEEQKAKYLPKLASGEHIAAFCLTEPASGSDAASIRSRATLSEDKKHYILNGSKVWITNGGLANIFTVFAKTEVVDSDGSVKDKITAFIVERDFGGVTNGKPEDKLGIRGSNTCEVHFENTKIPVENILGEVGDGFKVAMNILNSGRFSMGSVVAGLLKRLIEMTAEYACTRKQFNKRLSEFGLIQEKFALMAQKAYVMESMTYLTAGMLDQPGFPDCSIEAAMVKVFSSEAAWQCVSEALQILGGLGYTRDYPYERILRDTRILLIFEGTNEILRMYIALTGLQHAGRILTTGGSGGSGGSGGSDLGLTGNHGVVHPSLADSANKFEENTYCFGRTVETLLLRFGKTIMEEQLVLKRVANILINLYGMTAVLSRASRSIRIGLRNHDHEVLLANTFCVEAYLQNLFSLSQLDKYAPENLDEQIKKVSQQILEKRAYICAHPLDRTC
B4: ECSIT (tag-free) (natural protein, human, UniProt Q9BQ95 49-431, looked up)
chain: SSEQSLVPSPPEPRQRPTKALVPFEDLFGQAPGGERDKASFLQTVQKFAEHSVRKRGHIDFIYLALRKMREYGVERDLAVYNQLLNIFPKEVFRPRNIIQRIFVHYPRQQECGIAVLEQMENHGVMPNKETEFLLIQIFGRKSYPMLKLVRLKLWFPRFMNVNPFPVPRDLPQDPVELAMFGLRHMEPDLSARVTIYQVPLPKDSTGAADPPQPHIVGIQSPDQQAALARHNPARPVFVEGPFSLWLRNKCVYYHILRADLLPPEEREVEETPEEWNLYYPMQLDLEYVRSGWDNYEFDINEVEEGPVFAMCMAGAHDQATMAKWIQGLQETNPTLAQIPVVFRLAGSTRELQTSSAGLEEPPLPEDHQEEDDNLQRQQQGQS
B5: His6-ECSIT (natural protein, human, UniProt Q9BQ95 49-431, looked up)
chain: B4 chain

Legend:
[1] = molecular target: B5; assay: SEC
[2] = molecular target: B5; assay: SEC; remark: listed apart in the source
[3] = molecular target: T1, ACAD9 (wild type, without a tag); assay: SEC
[4] = molecular target: the molecule itself; assay: SEC
[5] = molecular target: T2, ACAD9-His6; assay: pull-down
[6] = molecular target: T1, ACAD9 (wild type, without a tag); assay: SEC; remark: listed apart in the source
[7] = molecular target: T3, ACAD9 Arg469Trp; assay: SEC
[8] = molecular target: T4, ACAD9 Arg518His; assay: SEC
[9] = molecular target: T5, ACAD9 Glu426Gln; assay: SEC

Binder: B1
stoichiometry N [1]: 1 NDUFAF1 chains per ECSIT chain (two monomers with one dimer)
stoichiometry N [2]: 1 mol/mol

Binder: B2
stoichiometry N [3]: 1 C-ECSIT chains per ACAD9 chain (one tetramer with two dimers)
stoichiometry N [4]: 4

Binder: B3
stoichiometry N [4]: 2

Binder: B4
stoichiometry N [5]: ~1 mol/mol

Binder: B5
stoichiometry N [3]: 1 ECSIT chains per ACAD9 chain (one dimer with one dimer)
stoichiometry N [4]: 2
stoichiometry N [6]: 1 mol/mol
binding result [7]: binds
binding result [8]: binds
binding result [9]: binds
